The target of this test is human TNFR2 on the cell membrane (human) (UniProt P20333). Put plainly: flow cytometry on human PBMC, CD3+ T cells.
Sequence of human TNFR2 on the cell membrane (human) (P20333 23-461): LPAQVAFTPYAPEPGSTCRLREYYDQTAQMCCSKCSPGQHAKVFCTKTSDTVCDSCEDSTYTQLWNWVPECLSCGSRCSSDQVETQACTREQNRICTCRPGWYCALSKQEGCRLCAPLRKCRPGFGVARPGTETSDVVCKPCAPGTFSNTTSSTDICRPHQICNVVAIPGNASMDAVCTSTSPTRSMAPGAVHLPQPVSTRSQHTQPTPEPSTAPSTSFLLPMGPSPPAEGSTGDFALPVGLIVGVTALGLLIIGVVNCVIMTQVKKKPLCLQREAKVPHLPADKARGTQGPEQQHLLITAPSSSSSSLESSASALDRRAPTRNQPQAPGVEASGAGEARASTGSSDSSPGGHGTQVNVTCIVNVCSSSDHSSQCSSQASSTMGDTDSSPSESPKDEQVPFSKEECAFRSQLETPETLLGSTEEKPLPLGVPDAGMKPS

In the case of Isotype Ctrl (antibody), the percent of cells in the upper right quadrant (Q1-UR, CD3+ and anti-human IgG Fc+) was determined as 5.48%.

The record behind these values is US20240392024A1.
